The supplement of paper PMC9732359
± gives the uncertainty stated by the source.

Experiment: protein stability index of a GFP-peptide fusion (yeast GPS) (PSI 1-4); higher = more stable; sorted into four equal gates, so the index is relative within each strain
In short: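 Each library plasmid carries Cherry plus GFP with a tiled 17-residue yeast protein peptide fused downstream, and the pooled library was carried in yeast. Mid-log cultures in leucine-free medium were sorted into four equal gates by GFP/Cherry ratio. Reads from Illumina sequencing of PCR-amplified plasmids from each gate were assigned to strains by barcodes. Per peptide, the protein stability index was computed as the summed products of gate read frequency and gate number.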

Sequence | protein stability index (doa10∆) | protein stability index (pdr5∆) | protein stability index (san1∆) | protein stability index (ubr1∆)
KINPFGFEQVKIALGSP [RRI2] | 2.65 ± 0.08 | 2.91 ± 0.053 | 2.77 ± 0.068 | 2.78 ± 0.07
NFALTTLIDLVKHSPGA [ECM29] | 1.61 ± 0.11 | 1.79 ± 0.071 | 1.49 ± 0.15 | 2.13 ± 0.062
GANDLGFTASVSNQENA [MED1] | 3.06 ± 0.083 | 3.17 ± 0.11 | 2.93 ± 0.078 | 3.39 ± 0.11
RAASVGSLKLIELLCGL [NAS6] | 2.18 ± 0.075 | 2.13 ± 0.11 | 1.94 ± 0.11 | 1.83 ± 0.063
KSIMDGIHDGHIKKLLH [FAS1] | 1.54 ± 0.035 | 1.48 ± 0.037 | 1.37 ± 0.075 | 1.38 ± 0.024
RFMRFLADRDEFIQDSA [ECM29] | 1.87 ± 0.052 | 1.23 ± 0.042 | 1.21 ± 0.094 | 2.26 ± 0.029
EKLLQQDREITNWARTT [MED8] | 2.37 ± 0.09 | 1.77 ± 0.087 | 2.48 ± 0.089 | 2.06 ± 0.11
VKKPQKSKTSTGKERSK [SNM1] | 3.15 ± 0.07 | 3.39 ± 0.085 | 3.549 ± 0.035 | 3.35 ± 0.062
RELLVEGYGLRDVMCTD [RPO31] | 2.36 ± 0.063 | 2.57 ± 0.063 | 2.77 ± 0.066 | 2.95 ± 0.056
TAKKTNRSAYDSKNTPN [YDL088C/ASM4] | 2.68 ± 0.089 | 2.78 ± 0.065 | 2.94 ± 0.052 | 2.9 ± 0.084
RDIEKITSLYALIRRDF [CDC53] | 2.1 ± 0.035 | 1.89 ± 0.03 | 1.84 ± 0.05 | 1.75 ± 0.021
YCHEKELTIIKNPRVTK [CSN9] | 2.55 ± 0.098 | 2.29 ± 0.18 | 2.14 ± 0.2 | 2.13 ± 0.13
WREQLRNRDIALFQPPN [ROX3] | 2.31 ± 0.066 | 2.95 ± 0.066 | 2.73 ± 0.059 | 1.96 ± 0.047
RYLVGGNKIQKVLLDSK [RPS7A] | 1.24 ± 0.084 | 2.01 ± 0.18 | 1.51 ± 0.25 | 1.7 ± 0.17
MNNETSGKETASAPLCS [DLS1] | 3.01 ± 0.067 | 3.21 ± 0.06 | 3.18 ± 0.055 | 3.12 ± 0.063
AHTASVGVVFGSGAANE [COR1] | 3.23 ± 0.12 | 3.29 ± 0.084 | 3.07 ± 0.1 | 3.39 ± 0.12
KLAKNLQIGDVVERHLE [RPO31] | 3.25 ± 0.15 | 3.49 ± 0.12 | 3.31 ± 0.069 | 3.2 ± 0.12
TYVEELFPIVKKHGKTD [YJL039C/NUP192] | 3.33 ± 0.14 | 3.44 ± 0.11 | 3.32 ± 0.12 | 3.19 ± 0.091
ADNTKDKEKEENNDDAL [MED4] | 2.86 ± 0.14 | 3.04 ± 0.11 | 2.98 ± 0.078 | 3.16 ± 0.082
FTGDFLRRVEERFTKSK [FAS1] | 3.29 ± 0.14 | 3.6 ± 0.16 | 3.19 ± 0.083 | 2.78 ± 0.27
EIINNKTSSQTSLSSKD [YMR153W/NUP53] | 2.33 ± 0.067 | 2.12 ± 0.073 | 2.34 ± 0.12 | 2.45 ± 0.045
SVKGKVVIDAFRLIDTG [RPN11] | 1.83 ± 0.12 | 2.38 ± 0.099 | 1.92 ± 0.15 | 1.79 ± 0.061
VHRDDPALVGKLRGDLR [SNF6] | 3.36 ± 0.083 | 3.2 ± 0.088 | 2.7 ± 0.092 | 2.88 ± 0.071
GNSFNKSSNDTIEHAAD [YCG1] | 2.14 ± 0.058 | 2.67 ± 0.048 | 2.37 ± 0.047 | 2.64 ± 0.057
ARCYRYQKNKPYPKSRY [RPL10] | 2.3 ± 0.064 | 2.38 ± 0.065 | 2.41 ± 0.055 | 2.77 ± 0.057

Sequence | protein stability index (doa10∆) | protein stability index (pdr5∆) | protein stability index (san1∆) | protein stability index (ubr1∆)
PLNDGFVDLVEHFLKLN [YML103C/NUP188] | 1.84 ± 0.28 | 1.63 ± 0.12 |  | 2.53 ± 0.13
SYNLEYIESKFCPGEIV [YMR129W/POM152] | 3.15 ± 0.13 | 3.21 ± 0.19 | 3.12 ± 0.14 | 3.21 ± 0.096
IDNGAESSENEAEDDDN [RPC53] | 3.33 ± 0.14 | 3.62 ± 0.17 | 3.15 ± 0.11 | 2.81 ± 0.16
KPTSHKQLQQPKSSPLK [SIR4] | 2.87 ± 0.057 | 3 ± 0.058 | 3.04 ± 0.039 | 2.95 ± 0.032
ENSTSNSKPEKSSDSND [YLR335W/NUP2] | 3.24 ± 0.14 | 3.32 ± 0.16 | 3.31 ± 0.071 | 3.4 ± 0.085
DENPDLLGYTGIPTDKG [PRE8] | 1.99 ± 0.05 | 2.48 ± 0.063 | 2.71 ± 0.05 | 2.28 ± 0.044
RRHRNPDLQFIVISLKN [SMC1] | 1.86 ± 0.041 | 1.83 ± 0.039 | 1.73 ± 0.058 | 2.13 ± 0.027
INSPMPQQAQMQQAQFQ [SNF2] | 2.98 ± 0.093 | 2.98 ± 0.089 | 3.11 ± 0.1 | 2.98 ± 0.083
ATVPSAPYRKQIISNAH [YAR002W/NUP60] | 2.34 ± 0.062 | 2.41 ± 0.069 | 1.88 ± 0.093 | 2.37 ± 0.06
IYKSIFNVVDVGVDQLS [YJL039C/NUP192] | 3.11 ± 0.055 | 2.92 ± 0.047 | 3.05 ± 0.041 | 3.05 ± 0.042
TGLKLYSRITLIIDDPS [RPP1] | 2.22 ± 0.065 | 2.8 ± 0.077 | 2.17 ± 0.062 | 2.75 ± 0.086
DHNGVPFPQYPAGMNET [ITC1] | 1.97 ± 0.12 | 2.59 ± 0.11 | 2.8 ± 0.19 | 2.42 ± 0.064
ALTNELNELKAIKDKLE [YIL149C/MLP2] | 1.35 ± 0.061 | 2.01 ± 0.07 | 1.89 ± 0.096 | 1.96 ± 0.058
SLSDEVMRNEIRITSLQ [SIR4] | 2.92 ± 0.065 | 2.48 ± 0.064 | 2.81 ± 0.067 | 2.52 ± 0.077
NAAGNTPDATKIKAILE [RPP2A] | 3.13 ± 0.089 | 3.32 ± 0.092 | 2.99 ± 0.085 | 3.19 ± 0.054
SQSQQKLLKEKVKLFHG [MED2] | 3.1 ± 0.091 | 3.1 ± 0.093 | 3.07 ± 0.057 | 2.81 ± 0.08
IILPLDNATLTELVDKA [SSN2] | 2.54 ± 0.11 | 3.16 ± 0.15 | 2.6 ± 0.099 | 1.95 ± 0.26
SSSNGGGSAKPSLKFKP [RPC53] | 2.61 ± 0.13 | 3 ± 0.14 | 2.74 ± 0.093 | 3.34 ± 0.091
VTQKDICILGILDLCQL [CSI1] | 2.59 ± 0.091 | 2.85 ± 0.072 | 2.24 ± 0.11 | 1.29 ± 0.15
NRRWTQRRGPLVVYAED [RPL4A] | 2.44 ± 0.16 | 2.48 ± 0.17 | 2.12 ± 0.093 | 2.16 ± 0.1
YDLMAPNGHISTKKIQV [YMR129W/POM152] | 2.15 ± 0.08 | 2.06 ± 0.07 | 1.5 ± 0.085 | 1.94 ± 0.05
EGLTYKYPARRIHTNDN [SSN3] | 2.78 ± 0.072 | 2.89 ± 0.073 | 2.86 ± 0.076 | 2.83 ± 0.055
TRQASDLASSKEVLAKI [RPN5] | 2.92 ± 0.11 | 2.96 ± 0.06 | 2.99 ± 0.077 | 2.85 ± 0.076
PATTSQMAKDVTTFLNW [CYT1] | 3.16 ± 0.12 | 3.02 ± 0.13 | 2.84 ± 0.15 | 3.31 ± 0.27
